Laboratory results published in patent US20240409635A1.
Blank lines part the entries; values can stand above or below the binder they belong to.

Columns and labels:
[1] = target: tyrosine-protein kinase Met (c-Met) on human tumor cells (human) (UniProt P08581); test: cell-based or functional assay
[2] = target: HER2-BsAb bispecific control antibody (TA1-Fab anti-CD3 x HER2 VHH); test: BLI self-interaction, AHQ sensor
[3] = target: CEA-BsAb bispecific control antibody (TA1-Fab anti-CD3 x CEA VHH); test: BLI self-interaction, AHQ sensor
[4] = target: EGFR-BsAb bispecific control antibody (TA1-Fab anti-CD3 x EGFR VHH); test: BLI self-interaction, AHQ sensor
[5] = target: CEA-CAM6-BsAb bispecific control antibody (TA1-Fab anti-CD3 x CEA-CAM6 VHH); test: BLI self-interaction, AHQ sensor

Sequence of tyrosine-protein kinase Met (c-Met) on human tumor cells (human) (P08581 25-1390): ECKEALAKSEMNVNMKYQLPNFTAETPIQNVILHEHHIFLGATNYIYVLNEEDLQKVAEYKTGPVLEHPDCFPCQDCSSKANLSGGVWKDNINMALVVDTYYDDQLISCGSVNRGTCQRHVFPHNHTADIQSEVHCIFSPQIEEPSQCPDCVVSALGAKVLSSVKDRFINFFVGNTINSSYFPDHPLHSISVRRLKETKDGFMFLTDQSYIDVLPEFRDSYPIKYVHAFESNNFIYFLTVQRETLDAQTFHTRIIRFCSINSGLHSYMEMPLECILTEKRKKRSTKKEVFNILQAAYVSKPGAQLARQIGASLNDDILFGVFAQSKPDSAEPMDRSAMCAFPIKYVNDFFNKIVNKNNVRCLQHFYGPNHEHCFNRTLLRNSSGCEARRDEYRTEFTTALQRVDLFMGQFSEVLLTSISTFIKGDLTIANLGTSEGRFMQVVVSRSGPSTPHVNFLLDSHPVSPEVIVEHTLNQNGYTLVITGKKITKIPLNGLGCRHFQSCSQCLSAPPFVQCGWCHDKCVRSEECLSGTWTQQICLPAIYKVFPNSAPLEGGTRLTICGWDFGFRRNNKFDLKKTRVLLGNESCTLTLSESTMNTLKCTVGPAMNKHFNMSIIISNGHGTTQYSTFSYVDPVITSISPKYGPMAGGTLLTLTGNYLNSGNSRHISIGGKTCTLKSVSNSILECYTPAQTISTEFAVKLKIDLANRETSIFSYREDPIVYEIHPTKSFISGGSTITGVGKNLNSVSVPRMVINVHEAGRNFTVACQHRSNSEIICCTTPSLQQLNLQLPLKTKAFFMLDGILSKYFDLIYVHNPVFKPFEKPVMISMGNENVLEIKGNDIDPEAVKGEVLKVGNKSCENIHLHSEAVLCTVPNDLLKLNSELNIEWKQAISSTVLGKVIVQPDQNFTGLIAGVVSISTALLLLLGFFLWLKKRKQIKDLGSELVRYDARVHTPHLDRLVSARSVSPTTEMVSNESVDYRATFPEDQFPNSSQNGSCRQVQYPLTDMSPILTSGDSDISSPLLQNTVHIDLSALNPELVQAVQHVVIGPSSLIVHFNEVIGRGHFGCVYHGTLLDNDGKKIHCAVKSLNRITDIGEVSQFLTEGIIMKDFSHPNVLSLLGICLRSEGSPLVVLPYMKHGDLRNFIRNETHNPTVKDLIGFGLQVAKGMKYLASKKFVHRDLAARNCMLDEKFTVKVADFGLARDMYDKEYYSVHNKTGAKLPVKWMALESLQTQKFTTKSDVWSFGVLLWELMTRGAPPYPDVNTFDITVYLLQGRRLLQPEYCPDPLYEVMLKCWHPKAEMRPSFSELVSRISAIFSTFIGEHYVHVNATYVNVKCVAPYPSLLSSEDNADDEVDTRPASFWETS

- BLI-Response (self-interaction) [2]: 0.066 nm
B2: HER2-BsAb bispecific control antibody (TA1-Fab anti-CD3 x HER2 VHH) (bispecific antibody, human IgG4 S228P, kappa, F234A L235A)
heavy: EVKLLESGGGLVQPKGSLKLSCAASGFTFNTYAMNWVRQAPGKGLEWVARIRSKYNNYATYYADSVKDRFTISRDDSQSILYLQMNNLKTEDTAMYYCVRHGNFGNSYVSWFAYWGQGTLVTVSSASTKGPSVFPLAPCSRSTSESTAALGCLVKDYFPEPVTVSWNSGALTSGVHTFPAVLQSSGLYSLSSVVTVPSSSLGTKTYTCNVDHKPSNTKVDKRVESKYGPPCPPCPAPEAAGGPSVFLFPPKPKDTLMISRTPEVTCVVVDVSQEDPEVQFNWYVDGVEVHNAKTKPREEQFNSTYRVVSVLTVLHQDWLNGKEYKCKVSNKGLPSSIEKTISKAKGQPREPQVYTLPPCQEEMTKNQVSLWCLVKGFYPSDIAVEWESNGQPENNYKTTPPVLDSDGSFFLYSRLTVDKSRWQEGNVFSCSVMHEALHNHYTQKSLSLSL
chain: QVQLVQSGGGLVQAGGSLRLSCAASGRTFSSYAMAWFRQAPGKEREFVAAISWSGANIYVADSVKGRFTISRDNAKDTVYLQMNSLKPEDTAVYYCAVKLGFAPVEERQYDYWGQGTQVTVSSESKYGPPCPPCPAPEAAGGPSVFLFPPKPKDTLMISRTPEVTCVVVDVSQEDPEVQFNWYVDGVEVHNAKTKPREEQFNSTYRVVSVLTVLHQDWLNGKEYKCKVSNKGLPSSIEKTISKAKGQPREPQVCTLPPSQEEMTKNQVSLSCAVKGFYPSDIAVEWESNGQPENNYKTTPPVLDSDGSFFLVSRLTVDKSRWQEGNVFSCSVMHEALHNRFTQKSLSLSL
light: QAVVTQESALTTSPGETVTLTCRSSTGAVTTSNYANWVQEKPDHLFTGLIGGTNKRAPGVPARFSGSLIGDKAALTITGAQTEDEAIYFCALWYSNLWVFGGGTKVEIKRTVAAPSVFIFPPSDEQLKSGTASVVCLLNNFYPREAKVQWKVDNALQSGNSQESVTEQDSKDSTYSLSSTLTLSKADYEKHKVYACEVTHQGLSSPVTKSFNRGEC

- BLI-Response (self-interaction) [4]: 0.037 nm
B4: EGFR-BsAb bispecific control antibody (TA1-Fab anti-CD3 x EGFR VHH) (bispecific antibody, human IgG4 S228P, kappa, F234A L235A)
heavy: B2 heavy
chain: QVQLQESGGGSVQAGGSLKLSCAASGRGFSRYAMGWFRQAPGQDREFVATISWTNSTDYADSVKGRFAISRDNAKNTAYLQMNSLKPEDTAVYYCAADKWASSTRSIDYDYWGQGIQVTVSSESKYGPPCPPCPAPEAAGGPSVFLFPPKPKDTLMISRTPEVTCVVVDVSQEDPEVQFNWYVDGVEVHNAKTKPREEQFNSTYRVVSVLTVLHQDWLNGKEYKCKVSNKGLPSSIEKTISKAKGQPREPQVCTLPPSQEEMTKNQVSLSCAVKGFYPSDIAVEWESNGQPENNYKTTPPVLDSDGSFFLVSRLTVDKSRWQEGNVFSCSVMHEALHNRFTQKSLSLSL
light: B2 light

- BLI-Response (self-interaction) [5]: 0.045 nm
B5: CEA-CAM6-BsAb bispecific control antibody (TA1-Fab anti-CD3 x CEA-CAM6 VHH) (bispecific antibody, human IgG4 S228P, kappa, F234A L235A)
heavy: B2 heavy
chain: QVKLEESGGGLVQAGGSLRLSCRTSGRTNSVYTMGWFRQAPGKEREFVAQIMWGAGTNTHYADSVKGRFTISRDSAESTVYLQMNSLKPEDTAVYYCAANRGIPIAGRQYDYWGQGTQVTVSSESKYGPPCPPCPAPEAAGGPSVFLFPPKPKDTLMISRTPEVTCVVVDVSQEDPEVQFNWYVDGVEVHNAKTKPREEQFNSTYRVVSVLTVLHQDWLNGKEYKCKVSNKGLPSSIEKTISKAKGQPREPQVCTLPPSQEEMTKNQVSLSCAVKGFYPSDIAVEWESNGQPENNYKTTPPVLDSDGSFFLVSRLTVDKSRWQEGNVFSCSVMHEALHNRFTQKSLSLSL
light: B2 light

Continued, binder first:

B1: c-Met-BsAb bispecific control antibody (anti-CD3 TA1 Fab and c-Met VHH) (bispecific antibody, not shown: a dimerising Fc or GST)
heavy: EVKLLESGGGLVQPKGSLKLSCAASGFTFNTYAMNWVRQAPGKGLEWVARIRSKYNNYATYYADSVKDRFTISRDDSQSILYLQMNNLKTEDTAMYYCVRHGNFGNSYVSWFAYWGQGTLVTVSSASTKGPSVFPLAPCSRSTSESTAALGCLVKDYFPEPVTVSWNSGALTSGVHTFPAVLQSSGLYSLSSVVTVPSSSLGTKTYTCNVDHKPSNTKVDKRV
chain: QVKLEESGGDLVQPGGSLRLSCVGSGSIFSYTAMGWYRQAPGKQRELVATIHSGGNINYADSVKGRFTISRDNTENTVYLQMNSLKPEDTAVYYCWSLLVGPETRYKDFNFWGRGTQVTVSS
light: B2 light
- T cell mediated killing EC50, H-1975 (EGFR+c-Met+) [1]: 0.223 pM
- T cell mediated killing EC50, HT-29 (EGFR+c-Met+) [1]: 0.518 pM
- T cell mediated killing EC50, OSRC2 (EGFR+++c-Met+) [1]: 0.243 nM
- T cell mediated killing EC50, UT33A (EGFR+++c-Met+++) [1]: 2.7 pM
- T cell mediated killing EC50, UT44 (EGFR+++c-Met++) [1]: 0.156 pM

B3: CEA-BsAb bispecific control antibody (TA1-Fab anti-CD3 x CEA VHH) (bispecific antibody, human IgG4 S228P, kappa, F234A L235A)
heavy: B2 heavy
chain: EVQLVESGGGFVQAGESLTLSCTSSTLTFTPYRMAWYRQAPGKQRDLVADISSGDGRTTNYADFAKGRFTISRDNIKNTVFLRMTNLKPEDTAVYYCNTFVSFVGIARSWGQGTQVTVSSESKYGPPCPPCPAPEAAGGPSVFLFPPKPKDTLMISRTPEVTCVVVDVSQEDPEVQFNWYVDGVEVHNAKTKPREEQFNSTYRVVSVLTVLHQDWLNGKEYKCKVSNKGLPSSIEKTISKAKGQPREPQVCTLPPSQEEMTKNQVSLSCAVKGFYPSDIAVEWESNGQPENNYKTTPPVLDSDGSFFLVSRLTVDKSRWQEGNVFSCSVMHEALHNRFTQKSLSLSL
light: B2 light
- BLI-Response (self-interaction) [3]: 0.103 nm
